Results published in PMC3200332.

Biological target: pyruvate ferredoxin oxidoreductase (POR) from P. furiosus (Pyrococcus furiosus)

Q: Which POR-linked H2 evolution activity (electrons from pyruvate via POR; ferredoxin had no significant effect) does the source give for “OE-SHI Dimer, heterodimeric form of P. furiosus soluble hydrogenase I (His9-PF0893 + PF0894) (from UniProt Q8U2E5 1-367) (complex)” here?
A: 0.2 U mg^−1

Q: “native Pyrococcus furiosus soluble hydrogenase I (SHI), heterotetramer PF0891-PF0894 (from UniProt Q8U2E5 1-367; Q8U2E5 1-367) (complex)” was tested. Which POR-linked H2 evolution activity (electrons from pyruvate via POR) did it give?
A: -0 U mg^−1
